Results reported in paper PMC5462952.

Molecular target: HA-tagged C-terminal region of CaV1.3α (aa 1509–2203) (rat) (UniProt P27732)
UniProt P27732, sequence (P27732 1509-2203): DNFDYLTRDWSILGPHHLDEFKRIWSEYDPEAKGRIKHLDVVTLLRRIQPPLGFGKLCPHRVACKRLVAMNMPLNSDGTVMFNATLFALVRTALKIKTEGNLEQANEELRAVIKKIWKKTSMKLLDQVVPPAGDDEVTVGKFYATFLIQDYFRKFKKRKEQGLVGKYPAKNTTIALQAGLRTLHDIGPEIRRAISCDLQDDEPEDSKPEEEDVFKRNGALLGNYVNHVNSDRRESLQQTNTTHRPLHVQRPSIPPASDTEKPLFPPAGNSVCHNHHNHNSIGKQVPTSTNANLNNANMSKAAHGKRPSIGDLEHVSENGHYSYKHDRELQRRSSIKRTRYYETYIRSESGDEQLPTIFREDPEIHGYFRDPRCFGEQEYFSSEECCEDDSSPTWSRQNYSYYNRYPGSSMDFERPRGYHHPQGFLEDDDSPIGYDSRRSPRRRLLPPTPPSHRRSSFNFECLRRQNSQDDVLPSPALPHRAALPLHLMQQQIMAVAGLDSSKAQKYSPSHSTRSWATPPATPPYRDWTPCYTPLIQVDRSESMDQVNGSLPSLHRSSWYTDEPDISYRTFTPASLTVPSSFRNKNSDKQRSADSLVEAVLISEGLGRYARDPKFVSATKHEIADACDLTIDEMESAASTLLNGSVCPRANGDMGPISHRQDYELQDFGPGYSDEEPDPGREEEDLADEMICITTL

full-length untagged RIM2α (from UniProt Q9EQZ7-1 1-1530) (natural protein)
shift of the voltage-dependence of CaV1.3 channel activation in HEK293/SK3-1 cells co-expressing RIM2α: 3 mV
